From patent US20250195614A1 (IMMUNITYBIO, published 2025)

Legend:
[1] = target: IL2Rβ and common γ chain on 32Dβ cells; test: cell-based or functional assay
TGF-β1 = TGF-β1 (UniProt P01137 279-390); test: cell-based or functional assay
Chain of TGF-β1 (P01137 279-390 limits assumed): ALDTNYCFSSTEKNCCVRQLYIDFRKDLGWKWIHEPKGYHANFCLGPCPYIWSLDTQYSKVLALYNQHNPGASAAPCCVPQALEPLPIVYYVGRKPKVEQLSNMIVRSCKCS

Row | EC50 (printed as IC50), IL-15 activity on IL-15 dependent 32Dβ cells (WST-1, OD450) [1] | EC50, 32Dβ cell proliferation (WST1, absorbance 450 nM) [1] | IC50, TGF-β1 blocking activity in HEK-Blue TGF-β cells (OD620) (TGF-β1) | IC50, inhibition of TGFβ1 (0.1 nM) activity in HEK-Blue TGFβ cells (QUANTI-Blue OD 620-655 nM) (TGF-β1) | TGF-β1 blocking activity against that of TGFRt15-TGFRs or TGFRt15*-TGFRs (HEK-Blue TGF-β cells) (TGF-β1) | Molecule
1 | 0.0818 nM | 0.0106 nM | – | – | – | recombinant IL-15 (from UniProt P40933 49-162) (ligand)
2 | – | – | 0.47 nM | 0.461 nM | ~10 fold | commercial TGF-β1 receptor II-Fc fusion (TGFRII/Fc, R&D Systems) (Fc fusion, UniProt P37173 24-159, looked up, not shown: a dimerising Fc or GST) IPPHVQKSVNNDMIVTDNNGAVKFPQLCKFCDVRFSTCDNQKSCMSNCSITSICEKPQEVCVAVWRKNDENITLETVCHDPKLPYHDFILEDAASPKCIMKEKKKPGETFFMCSCSSDECNDNIIFSEEYNTSNPD
